Results from paper PMC5828407 (Veterinary Research, 2018).

Biological target: GST-tagged FaeG fusion protein of F4ac (Escherichia coli, UniProt P14190 22-283)
Experiment: ELISA; APN protein coated on plates, incubated with FaeG peptides, fusion FaeG proteins or F4 fimbriae; absorbance at 450 nm
Settings: both partners purified

B1: porcine aminopeptidase N (APN), His-tagged whole protein (receptor)
chain: MAKGFYISKALGILGILLGVAAVATIIALSVVYAQEKNKNAEHVPQAPTSPTITTTAAITLDQSKPWNRYRLPTTLLPDSYNVTLRPYLTPNADGLYIFKGKSIVRLLCQEPTDVIIIHSKKLNYTTQGHMVVLRGVGDSQVPEIDRTELVELTEYLVVHLKGSLQPGHMYEMESEFQGELADDLAGFYRSEYMEGNVKKVLATTQMQSTDARKSFPCFDEPAMKATFNITLIHPNNLTALSNMPPKGSSTPLAEDPNWSVTEFETTPVMSTYLLAYIVSEFQSVNETAQNGVLIRIWARPNAIAEGHGMYALNVTGPILNFFANHYNTSYPLPKSDQIALPDFNAGAMENWGLVTYRENALLFDPQSSSISNKERVVTVIAHELAHQWFGNLVTLAWWNDLWLNEGFASYVEYLGADHAEPTWNLKDLIVPGDVYRVMAVDALASSHPLTTPAEEVNTPAQISEMFDSISYSKGASVIRMLSNFLTEDLFKEGLASYLHAFAYQNTTYLDLWEHLQKAVDAQTSIRLPDTVRAIMDRWTLQMGFPVITVDTKTGNISQKHFLLDSESNVTRSSAFDYLWIVPISSIKNGVMQDHYWLRDVSQAQNDLFKTASDDWVLLNVNVTGYFQVNYDEDNWRMIQHQLQTNLSVIPVINRAQVIYDSFNLATAHMVPVTLALDNTLFLNGEKEYMPWQAALSSLSYFSLMFDRSEVYGPMKKYLRKQVEPLFQHFETLTKNWTERPENLMDQYSEINAISTACSNGLPQCENLAKTLFDQWMSDPENNPIHPNLRSTIYCNAIAQGGQDQWDFAWGQLQQAQLVNEADKLRSALACSNEVWLLNRYLGYTLNPDLIRKQDATSTINSIASNVIGQPLAWDFVQSNWKKLFQDYGGGSFSFSNLIQGVTRRFSSEFELQQLEQFKKNNMDVGFGSGTRALEQALEKTKANIKWVKENKEVVLNWFIEHS
B1: binds.
